# Columns and labels:
# [1] = target: Cas9 nickase (nCas9) (Streptococcus pyogenes) (UniProt Q99ZW2); assay: cell-based or functional assay
# [2] = target: catalytically inactive Cas9 (dCas9) (Streptococcus pyogenes) (UniProt Q99ZW2); assay: cell-based or functional assay
substance,measurement,setting,value
AcrIIA4 anti-CRISPR peptide,"average percent of qPCR-confirmed edited cells with nCas9 Plasmid 4 (+acrIIA4), per sgRNA unit pair; without acrIIA4 (Plasmid 5) between 73% and 100%",[1],0.7 to 5.9%
same,percent enzyme expression of gusA after dCas9 induction from Plasmid 6 (with acrIIA4); X-Gluc assay in E. coli,[2],0%
same,percent enzyme expression of lacZ after dCas9 induction from Plasmid 6 (with acrIIA4); LacZ blue white screening in E. coli,[2],27.3%
same,percent expression of flhC after dCas9 induction from Plasmid 6 (with acrIIA4); swimming motility assay in E. coli,[2],100%
